Publication PMC4870127

Assays:
Experiment in all cases: FXa generation assay
[1] = target: Factor VIIIa (WT), thrombin-activated WT B-domainless FVIII
[2] = target: Factor VIIIa D666S/S1787D swap variant (thrombin-activated B-domainless FVIII)
[3] = target: Factor VIIIa T657Y/Y1792T swap variant (thrombin-activated B-domainless FVIII)

Kd [1]: 0.92 nM
Kd [2]: 1.73 nM
Kd [3]: 1.45 nM
Substance: FIXaβ (from UniProt P00740 47-191; P00740 227-461) (enzyme)
